Patent publication US20190218261A1, “TARGETED ENHANCED DNA DEMETHYLATION” (The Jackson Laboratory, priority 2016, published 2019)

Assays:
[1] = test system: hMLH1 expression (methylation-silenced hMLH1 promoter) in HEK293T cells; assay: hMLH1 mRNA levels by TaqMan qRT-PCR in transfected HEK293T cells; type: cell-based, human
Procedure: To test the system, HEK293T cells were transfected with Casilio-ME components including Ct or Nt-fusion TET1-effector and a combination of 3 or 2 sgRNAs. Relative levels of hMLH1 mRNA were determined in TaqMan assays by using RNA extracted from cells 60 hours post-transfection and GAPDH as endogenous control for normalization of qRT-PCR measurements.
Cell culture and transfection. HEK293T cells were cultivated in Dulbecco's modified Eagle's medium (DMEM)(Sigma) with 10% fetal bovine serum (FBS)(Lonza), 4% Glutamax (Gibco), 1% Sodium Pyruvate (Gibco) and penicillin-streptomycin (Gibco) in an incubator set to 37° C. and 5% CO2. When indicated cells were treated with 2.5 μM or 5 μM 5-Azacytidine (sigma) as indicated with a daily change of medium containing freshly diluted drug. Cells were seeded into 12-well plates at 150,000 cells per well the day before being transfected with 100 ng of dCas9 construct, 100 ng of modified sgRNA construct and 200 ng of PUF-fusion with Attractene transfection reagent according to manufacturer's instructions (Qiagen). In dCas9-direct fusion experiments, cells were transfected with 200 ng dCas9-fusion constructs and 200 ng of modified sgRNA constructs. Transfected cells were harvested 60 hours after transfection, or otherwise indicated, and cell pellets were used for extractions of RNA, genomic DNA and protein.
Quantitative RT-PCR analysis. Cells were harvested, washed with Dulbecco's phosphate-buffered saline (dPBS), centrifuged at 125×g for 5 min and then the flash-frozen pellets were stored at −80° C. RNA was extracted using RNeasy Plus Mini Kit according to the manufacturer's instructions (Qiagen). cDNA libraries were made using Applied Biosystems High Capacity RNA-to-cDNA kit with 200 ng to 1 μg of RNA. TaqMan gene expression assays (Applied Biosystems) were designed using GAPDH (Hs03929097, VIC) as endogenous control and hMLH1 (Hs00179866, FAM) as target. TaqMan Universal Master Mix II, with UNG (Applied Biosystems) was used for Quantitative PCR (qPCR), with 2 μl of diluted cDNA used for each reaction. Activation was analyzed with the Applied Biosystems ViiA7 instrument. Gene expression levels were calculated by “delta delta Ct” algorithm and normalized to control samples.
HEK293T cells were cultivated in Dulbecco's modified Eagle's medium (DMEM) (Sigma) with 10% fetal bovine serum (FBS) (Lonza), 4% Glutamax (Gibco), 1% Sodium Pyruvate (Gibco) and penicillin-streptomycin (Gibco) in an incubator set to 37° C. and 5% CO2. Cells were seeded into 12-well plates at 150,000 cells per well the day before being transfected with 100 ng of dCas9 construct, 100 ng of modified sgRNA construct and 200 ng of PUF-fusion with Attractene transfection reagent according to manufacturer's instructions (Qiagen). Transfected cells were harvested 3 days after transfection, or otherwise indicated, and cell pellets were used for RNA extractions.
Cells were harvested, washed with Dulbecco's phosphate-buffered saline (dPBS), centrifuged at 125×g for 5 min and then the flash-frozen pellets were stored at −80° C. RNA was extracted using RNeasy Plus Mini Kit according to the manufacturer's instructions (Qiagen). cDNA libraries were made using Applied Biosystems High Capacity RNA-to-cDNA kit with 200 ng to 2 μg of RNA. TaqMan gene expression assays (Applied Biosystems) were designed using GAPDH (Hs03929097, VIC) as endogenous control and hMLH1 (Hs00179866, FAM) as target. TaqMan Universal Master Mix II, with UNG (Applied Biosystems) was used for Quantitative PCR (qPCR), with 2 μl of diluted cDNA used for each reaction. Activation was analyzed with the Applied Biosystems ViiA7 instrument. Gene expression levels were calculated by “delta delta Ct” algorithm and normalized to control samples.

[2] = test system: TetO::tdTomato transgene in HEK293T/TetO::tdTomato cell line; assay: TetO::tdTomato transgene activation measured by FACS; type: cell-based; settings: for transgene activation with higher PBS copy numbers: 15, 20, and 47 copies of PBS
Excerpt: In particular, to test whether appending PBS to the 3′ end of sgRNA affects sgRNA function, a series of modified Tet-targeting (sgTetO) or non-targeting control (sgControl) sgRNA were generated, […] domain-binding sequence (PBS) for PUF (3-2) (also simply referred to as PUFa) [PBS32 or PBSa: SEQ ID NO:8 (5′-UGUAUgUA-3′)], PUF(6-2/7-2) (also simply referred to as PUFb) [PBS6272 or PBSb: SEQ ID NO:9 (5′-UugAUAUA-3′)].
Cells were transfected with dCas9-VP64 with the different sgRNA scaffolds, and were analyzed by fluorescent-activated cell sorting (FACS) two days after transfection (FIG. 1B).
Cell Culture for Experiments. HEK293T cells were cultivated in Dulbecco's modified Eagle's medium (DMEM)(Sigma) with 10% fetal bovine serum (FBS)(Lonza), 4% Glutamax (Gibco), 1% Sodium Pyruvate (Gibco) and penicillin-streptomycin (Gibco). Incubator conditions were 37° C. and 5% CO2. For activation experiments, cells were seeded into 12-well plates at 100,000 cells per well the day before being transfected with 200 ng of dCas9 construct, 100 ng of modified sgRNA and 100 ng of PUF-fusion with Attractene transfection reagent (Qiagen). After transfection, cells were grown for 48 hrs and harvested for either RNA extraction or fluorescent-activated cell sorting (FACS). For dual activation-repression experiments, transfection remained the same, however cells were seeded into 12-well plates at 150,000 cells per well and were grown for 72 hrs before being harvested for FACS. For experiments with OCT4 and SOX2 dual activation-repression, cells were triple-sorted by BFP (for the activator-repressor module PUFb-p65HSF1/BFPKRAB-PUFa), mCherry (for dCas9mCherry) and GFP (for the sgRNA-PBS on vectors co-expressing EGFP) before RNA extraction. […]
Fluorescent-Activated Cell Sorting. […] Samples were analyzed on a FACScalibur flow cytometer using CellQuest Pro software (BD Bioscience). […] were collected in each run.

[3] = test system: 5′-UGUGUGUG-3′ RNA (SEQ ID NO:13); settings: cited from earlier work

B1: PUFc-NEIL2: SEQ ID NO:127 (protein)
chain: MIDGGGGSDPKKKRKVDPKKKRKVDPKKKRKVGSTGSRNDGGGGSGGGGSGGGGSGRAGILPPKKKRKVSRGRSRLLEDFRNNRYPNLQLREIAGHIMEFSQDQHGSRFIQLKLERATPAERQLVFNEILQAAYQLMVDVFGNYVIQKFFEFGSLEQKLALAERIRGHVLSLALQMYGSRVIEKALEFIPSDQQNEMVRELDGHVLKCVKDQNGNHVVQKCIECVQPQSLQFIIDAFKGQVFALSTHPYGCRVIQRILEHCLPDQTLPILEELHQHTEQLVQDQYGSYVIEHVLEHGRPEDKSKIVAEIRGNVLVLSQHKFANNVVQKCVTHASRTERAVLIDEVCTMNDGPHSALYTMMKDQYANYVVQKMIDVAEPGQRKIVMHKIRPHIATLRKYTYGKHILAKLEKYYMKNGVDLGDPKKKRKVDPKKKRKVGGRGGGGSGGGGSGGGGSGPALPEGPLVRKFHHLVSPFVGQQVVKTGGSSKKLQPASLQSLWLQDTQVHGKKLFLRFDLDEEMGPPGSSPTPEPPQKEVQKEGAADPKQVGEPSGQKTLDGSSRSAELVPQGEDDSEYLERDAPAGDAGRWLRVSFGLFGSVWVNDFSRAKKANKRGDWRDPSPRLVLHFGGGGFLAFYNCQLSWSSSPVVTPTCDILSEKFHRGQALEALGQAQPVCYTLLDQRYFSGLGNIIKNEALYRAGIHPLSLGSVLSASRREVLVDHVVEFSTAWLQGKFQGRPQHTQVYQKEQCPAGHQVMKEAFGPEDGLQRLTWWCPQCQPQLSEEPEQCQFS
- stimulation of TET1(CD) mediated hMLH1 activation by independent NEIL2 module ([1]; dual expression with PUFa-TET1(CD), gRNAs with both PBSa/c): significant stimulation of the TET1(CD) mediated hMLH1 activation

B2: NEIL2: NEIL2 glycosylase enhancer, tested fused to PUFa-TET1(CD) (either PUFa terminus) or to PUFc (protein)
chain: MLPEGPLVRKFHHLVSPFVGQQVVKTGGSSKKLQPASLQSLWLQDTQVHGKKLFLRFDLDEEMGPPGSSPTPEPPQKEVQKEGAADPKQVGEPSGQKTLDGSSRSAELVPQGEDDSEYLERDAPAGDAGRWLRVSFGLFGSVWVNDFSRAKKANKRGDWRDPSPRLVLHFGGGGFLAFYNCQLSWSSSPVVTPTCDILSEKFHRGQALEALGQAQPVCYTLLDQRYFSGLGNIIKNEALYRAGIHPLSLGSVLSASRREVLVDHVVEFSTAWLQGKFQGRPQHTQVYQKEQCPAGHQVMKEAFGPEDGLQRLTWWCPQCQPQLSEEPEQCQFS
- increase in gene activation with NEIL2 in the PUFa-TET1CD fusion (repeat experiment) ([1]; MLH1 gRNAs, NEIL2 at either PUFa terminus): four-fold increase in gene activation
- increase in hMLH1 expression with NEIL2 fused to PUFc ([1]; co-expressed with PUFa-TET1(CD), gRNAs with PBSa/c, RT-quantitative PCR): 7 fold
- hMLH1 activation by DNA glycosylase two-in-one effector fusions (in words) ([1]; fusions to PUFa-TET1(CD), gRNA 5xPBSa, HEK293T, 3 days): enhanced activation of hMLH1
- effect on TET1-mediated gene activation when gRNA lacked PBSc ([1]; gRNA scaffold with PBSa only): no effect on TET1-mediated gene activation
- hMLH1 activation relative to TET1 effector alone ([1]; two-in-one fusion to PUFa-TET1(CD)): 3 fold

B3: PUFa-VP64: NLS-PUFa-VP64 fusion; SEQ ID NO:32 (protein)
chain: MGILPPKKKRKVSRGRSRLLEDFRNNRYPNLQLREIAGHIMEFSQDQHGSRFIQLKLERATPAERQLVFNEILQAAYQLMVDVFGNYVIQKFFEFGSLEQKLALAERIRGHVLSLALQMYGSRVIEKALEFIPSDQQNEMVRELDGHVLKCVKDQNGNHVVQKCIECVQPQSLQFIIDAFKGQVFALSTHPYGCRVIQRILEHCLPDQTLPILEELHQHTEQLVQDQYGNYVIQHVLEHGRPEDKSKIVAEIRGNVLVLSQHKFASNVVEKCVTHASRTERAVLIDEVCTMNDGPHSALYTMMKDQYANYVVQKMIDVAEPGQRKIVMHKIRPHIATLRKYTYGKHILAKLEKYYMKNGVDLGGPAGSGRADALDDFDLDMLGSDALDDFDLDMLGSDALDDFDLDMLGSDALDDFDLDMLYID
- transgene activation with higher PBS copy numbers [2]: slightly lower, albeit still substantial transgene activation
- activation of TetO::tdTomato with only one PBSa ([2]; sgRNA with one PBSa): not observed

B4: PUFb-VP64: NLS-PUFb-VP64 fusion; SEQ ID NO:33 (protein)
chain: MGILPPKKKRKVSRGRSRLLEDFRNNRYPNLQLREIAGHIMEFSQDQHGSRFIQLKLERATPAERQLVFNEILQAAYQLMVDVFGNYVIQKFFEFGSLEQKLALAERIRGHVLSLALQMYGCRVIQKALEFIPSDQQNEMVRELDGHVLKCVKDQNGNHVVQKCIECVQPQSLQFIIDAFKGQVFALSTHPYGCRVIQRILEHCLPDQTLPILEELHQHTEQLVQDQYGSYVIEHVLEHGRPEDKSKIVAEIRGNVLVLSQHKFANNVVQKCVTHASRTERAVLIDEVCTMNDGPHSALYTMMKDQYANYVVQKMIDVAEPGQRKIVMHKIRPHIATLRKYTYGKHILAKLEKYYMKNGVDLGGPAGSGRADALDDFDLDMLGSDALDDFDLDMLGSDALDDFDLDMLGSDALDDFDLDMLYID
- transgene activation with higher PBS copy numbers [2]: slightly lower, albeit still substantial transgene activation

B5: PUF^531: PUF domain with mutations Q867E/Q939E/C935S/Q1011E/C1007S; SEQ ID NO:22 (protein)
chain: GRSRLLEDFRNNRYPNLQLREIAGHIMEFSQDQHGSRFIELKLERATPAERQLVFNEILQAAYQLMVDVFGNYVIQKFFEFGSLEQKLALAERIRGHVLSLALQMYGSRVIEKALEFIPSDQQNEMVRELDGHVLKCVKDQNGNHVVQKCIECVQPQSLQFIIDAFKGQVFALSTHPYGSRVIERILEHCLPDQTLPILEELHQHTEQLVQDQYGNYVIQHVLEHGRPEDKSKIVAEIRGNVLVLSQHKFASNVVEKCVTHASRTERAVLIDEVCTMNDGPHSALYTMMKDQYANYVVQKMIDVAEPGQRKIVMHKIRPHIATLRKYTYGKHILAKLEKYYMKNGVDLG
- affinity for new target RNA sequence compared to wild type PUF RNA [3]: very high affinity
